This passage reports Ki results from publication PMC10199020 (Nature Communications, 2023).

The target in the assay is T1, NL-IL23R co-expressed with IL12Rβ1 (IL-23 receptor on cells) (UniProt Q5VWK5 24-629; P42701 24-662).
T1 construct: also called NL-IL23R and IL12Rβ1; NL-IL23R with IL12Rβ1; source: HEK293T, transiently transfected, on living cells
In words: FRET or BRET; NanoBRET competition on living transfected HEK293T cells; 300 pM IL23-TMR displaced by unlabelled antagonist (concentration series or a single concentration); 1 h at 37 °C in HBSS with 1 mg/mL BSA. The conditions noted are these: one partner purified.

T1 sequence (Q5VWK5 24-629, chain 1 of 2, other chains not shown): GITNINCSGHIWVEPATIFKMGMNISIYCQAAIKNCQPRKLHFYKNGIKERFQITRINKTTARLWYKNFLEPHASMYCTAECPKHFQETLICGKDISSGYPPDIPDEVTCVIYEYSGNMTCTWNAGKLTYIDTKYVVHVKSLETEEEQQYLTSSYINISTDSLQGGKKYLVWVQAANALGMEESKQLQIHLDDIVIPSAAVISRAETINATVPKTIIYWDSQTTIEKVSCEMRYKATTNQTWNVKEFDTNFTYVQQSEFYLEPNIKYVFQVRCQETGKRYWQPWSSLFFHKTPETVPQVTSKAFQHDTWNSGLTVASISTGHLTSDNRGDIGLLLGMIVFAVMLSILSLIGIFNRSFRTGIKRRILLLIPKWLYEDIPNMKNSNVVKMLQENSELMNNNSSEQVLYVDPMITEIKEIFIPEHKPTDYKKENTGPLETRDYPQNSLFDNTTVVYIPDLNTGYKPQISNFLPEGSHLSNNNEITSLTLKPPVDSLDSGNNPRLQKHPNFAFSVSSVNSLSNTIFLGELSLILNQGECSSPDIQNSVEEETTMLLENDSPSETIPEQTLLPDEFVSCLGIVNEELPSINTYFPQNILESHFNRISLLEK

B1: IL12p40 (ligand, UniProt P29460 23-328, looked up)
chain: IWELKKDVYVVELDWYPDAPGEMVVLTCDTPEEDGITWTLDQSSEVLGSGKTLTIQVKEFGDAGQYTCHKGGEVLSHSLLLLHKKEDGIWSTDILKDQKEPKNKTFLRCEAKNYSGRFTCWWLTTISTDLTFSVKSSRGSSDPQGVTCGAATLSAERVRGDNKEYEYSVECQEDSACPAAEESLPIEVMVDAVHKLKYENYTSSFFIRDIIKPDPPKNLQLKPLKNSRQVEVSWEYPDTWSTPHSYFSLTFCVQVQGKSKREKKDRVFTDKTSATVICRKNASISVRAQDRYYSSSWSEWASVPCS
notes: source: bought: Peprotech (CHO produced)
B1 displayed a Ki of 12.4 nM.
